B1: 369_A12 (antibody, V domains shown)
VH: EVQLLESGGGLVQPGGSLRLSCAASGFTFSSYSMHWVRQAPGKGLEWVASINYNSGYTGYADSVKGRFTISRDNSKNTLYLQMNSLRAEDTAVYYCARAATWHDTHLDYWGQGTLVTVSS
VL: DIQMTQSPSSLSASVGDRVTITCRASQSILTYLNWYQQKPGKAPKLLIYAATSRHSGVPSRFSGSGSGTDFTLTISSLQPEDFATYYCQQSYDLPLTFGGGTKVEIK
B2: 369_C06 (antibody, V domains shown)
VH: B1 VH with A49S, S55G, T58K, G59S
VL: B1 VL with T31S, L33V, H55A, L94S
B3: 366_B07 (antibody, V domains shown)
VH: B1 VH with S31D, S33G, H35N, A49S, S50G, S55G, G59S, A99G, T101N
VL: B1 VL with L30V, T31S, L47V, A51T, H55A, D93N, L94S
B4: 365_G05 (antibody, V domains shown)
VH: B1 VH with S33G, H35N, A49S, S50G, S55G, T58K, A99G, T101N, H106A
VL: B1 VL with T31S, L47V, R54L, H55A, D93E, L94N
B5: 369_C09 (antibody, V domains shown)
VH: B1 VH with S33G, A49S, S55G
VL: B1 VL with L30V, T31S, L47V
B6: 369_C11 (antibody, V domains shown)
VH: B1 VH with S31D, S33G, S50G, S55G
VL: B1 VL with T31S, L47V, H55A, L94T
B7: 374_A10 (antibody, V domains shown)
VH: B1 VH with S33G, A49S, S50G, S55G, G59S
VL: B1 VL with T31S, L33V, H55A, L94T
B8: 365_H07 (antibody, V domains shown)
VH: B1 VH with S30D, H35N, A49S, S50G, S55G, G59S, A99G, T101N
VL: B1 VL with L30S, L33V, D93E, L94N
B9: 372_D07 (antibody, V domains shown)
VH: B1 VH with S33G, H35N, S50G, S55G, G59S
VL: B1 VL with T31S, H55A, D93E, L94S
B10: 365_G07 (antibody, V domains shown)
VH: B1 VH with S30D, S33G, A49S, S55G, G59S, T101N, H106A
VL: B1 VL with L30V, T31S, H55A, L94N
B11: 365_F02 (antibody, V domains shown)
VH: B1 VH with H35N, A49S, S50G, S55G, T58K, A99G, T101N
VL: B1 VL with L33V, L94T
B12: 366_A02 (antibody, V domains shown)
VH: B1 VH with S30D, S33G, H35N, T58K, T101N
VL: B1 VL with L30V, T31S, L33V, H55A
B13: 365_F03 (antibody, V domains shown)
VH: B1 VH with S30D, H35N, A49S, S55G, G59S, A99G, T101N
VL: B1 VL with T31S, H55A, L94N
B14: 376_D08 (antibody, V domains shown)
VH: B1 VH with S30D, S33G, H35N, S50N, T58K, G59S, H106A
VL: B1 VL with L47V, A50Y, T52N, S53N, H55P, D93S, L94N
B15: 373_D11 (antibody, V domains shown)
VH: B1 VH with S33G, S50G, S55G, G59S
VL: B1 VL with L33V, H55A, L94N
B16: 366_D01 (antibody, V domains shown)
VH: B1 VH with S33G, A49S, S55G, T101N
VL: B1 VL with L33V, H55A, D93E, L94N
B17: 375_D02 (antibody, V domains shown)
VH: B1 VH with H35N, A49S, S50N, S55G, G59S
VL: B1 VL with T52S, R54L, H55Q, D93E
B18: 371_B11 (antibody, V domains shown)
VH: B1 VH with G59S
VL: B1 VL with H55A, D93E
B19: 366_B05 (antibody, V domains shown)
VH: B1 VH with S31D, H35N, A49S, S50G, T58K, G59S, A99G, T101N, H106A
VL: B1 VL with L30S, T31S, L47V, A51V, H55A, D93E
B20: 375_H04 (antibody, V domains shown)
VH: B1 VH with S33G, S50G
VL: B1 VL with T31S, L47V, H55A, D93S, L94N
B21: 366_E08 (antibody, V domains shown)
VH: B1 VH with S31D, H35N, A49S, S50N, S55G, G59S, A99G, T101N
VL: B1 VL with L30V, D93S, L94N
B22: 365_C05 (antibody, V domains shown)
VH: B1 VH with S31D, H35N, A49S, S50G, S55G, T58K, A99G, T101N
VL: B1 VL with D93N, L94S
B23: 370_B06 (antibody, V domains shown)
VH: B1 VH with S33G, S50G, S55G, G59S
VL: B1 VL with L30V, T31S, L33V, L47V, H55A, D93E, L94T
B24: 373_B01 (antibody, V domains shown)
VH: B1 VH with S30D, S33G, A49S, S50G, S55G, T58K, G59S
VL: B1 VL with T31S, L33V, L47V, H55A
B25: 374_B01 (antibody, V domains shown)
VH: B1 VH with S30D, S33G, S50G, G59S
VL: B1 VL with T31S, T52S, R54L, H55Q, L94S
B26: 374_B07 (antibody, V domains shown)
VH: B1 VH with S33G, A49S, S55G, T58K, G59S
VL: B1 VL with L30I, T31S, R54L, H55A, D93E, L94S
B27: 370_H05 (antibody, V domains shown)
VH: B1 VH with S33G, A49S, S50N, S55G, G59S
VL: B1 VL with T31S, T52S, R54L, H55Q, Y92D, D93S
B28: 374_A12 (antibody, V domains shown)
VH: B1 VH with S30D, S33G, A49S, S55G, G59S
VL: B1 VL with H55A, Y92D, D93S, L94N
B29: 371_A05 (antibody, V domains shown)
VH: B1 VH with S33G, A49S, S50N, S55G, T58K, G59S
VL: B1 VL with H55A, Y92D, D93N
B30: 370_E12 (antibody, V domains shown)
VH: B1 VH with S30D, S33G, S50G, S55G, G59S
VL: B1 VL with T31S, L33V, H55A, D93E, L94N
B31: 371_D05 (antibody, V domains shown)
VH: B1 VH with S30D, S31D, S33G, A49S, S50G, S55G, G59S
VL: B1 VL with T52S, R54L, H55Q, L94S
B32: 369_B08 (antibody, V domains shown)
VH: B1 VH with S30D, S33G, A49S, S55G, G59S
VL: B1 VL with T31S, L33V, H55A, D93E, L94S
B33: 369_B07 (antibody, V domains shown)
VH: B1 VH with S30D, S33G, S50N, S55G, T58K, G59S
VL: B1 VL with L30V, T31S, L33V, L47V, R54L, H55A
B34: 365_G09 (antibody, V domains shown)
VH: B1 VH with H35N, A49S, S50G, S55G, T58K, G59S, A99G, T101N
VL: B1 VL with L30I, L47V, H55A, D93N, L94S
B35: 376_F09 (antibody, V domains shown)
VH: B1 VH with S30D, A49S, S55G, T58K, G59S
VL: B1 VL with L33V, A51V, H55A, L94T
B36: 365_E12 (antibody, V domains shown)
VH: B1 VH with S31D, S33G, H35N, A49S, S50N, S55G, A99G, T101N, H106A
VL: B1 VL with H55A, D93E, L94T
B37: 369_E03 (antibody, V domains shown)
VH: B1 VH with S33G, S50G, S55G, G59S
VL: B1 VL with T31S, L33V, R54L, H55A, D93E, L94N
B38: 375_C03 (antibody, V domains shown)
VH: B1 VH with S30D, A49S, S50G, S55G, G59S
VL: B1 VL with T31S, L33V, L47V, H55A, D93E, L94S
B39: 373_G06 (antibody, V domains shown)
VH: B1 VH with S33G
VL: B1 VL with T31S, L33V, R54L, H55A, D93N
B40: 366_A04 (antibody, V domains shown)
VH: B1 VH with S33G, H35N, S50G, S55G, G59S, T101N, H106A
VL: B1 VL with L47V, R54L, H55A, Y92D, L94S
B41: 371_B02 (antibody, V domains shown)
VH: B1 VH with S30D, S33G, H35N, A49S, S50N, S55G, G59S
VL: B1 VL with L33V, L47V, R54L, H55A, D93N, L94N
B42: 365_G04 (antibody, V domains shown)
VH: B1 VH with S30D, H35N, S50G, S55G, A99G, T101N
VL: B1 VL with L30V, T31S, L33V, L47V, R54L, H55A, L94T
B43: 371_C02 (antibody, V domains shown)
VH: B1 VH with S30D, S33G, S50G
VL: B1 VL with L33V, T52S, R54L, H55Q, L94T
B44: 371_F07 (antibody, V domains shown)
VH: B1 VH with S33G, S50G, S55G, G59S
VL: B1 VL with R54L, H55A, Y92D, D93S, L94N
B45: 366_A08 (antibody, V domains shown)
VH: B1 VH with S30D, S31D, H35N, A49S, S50G, T58K, A99G, T101N
VL: B1 VL with L30V, T31S, L33V, L47V, H55A, D93N, L94S

Positions count from the first letter of the chain named.

In the assay the target is human Fc (human). In words: ELISA, negative control. For orientation: In an ELISA, binding on a coated surface is turned into a signal by an enzyme label.
As for B1, the optical density stood at 0.461 OD.
The same measure for B2: 0.414 OD; for B3: 0.215 OD; for B4: 0.319 OD.
The result for B5 reads 0.32 OD.
The result for B6 reads 0.378 OD; that for B7, 0.23 OD; that for B8, 0.33 OD.
Regarding B9, the optical density was determined as 0.472 OD.
Consider B10, for which the optical density stood at 0.331 OD.
The result for B11 reads 0.326 OD.
B12 gave an optical density of 0.336 OD.
The result for B13 reads 0.347 OD; that for B14, 0.232 OD; that for B15, 0.364 OD.
The same measure for B16: 0.374 OD; for B17: 0.191 OD.
The same measure for B18: 0.549 OD.
For the molecule B19, the optical density came to 0.24 OD.
The result for B20 reads 0.181 OD; that for B21, 0.272 OD.
The same measure for B22: 0.271 OD; for B23: 0.441 OD; for B24: 0.197 OD.
The result for B25 reads 0.173 OD.
For B26, the optical density worked out at 0.25 OD.
In turn, B27 showed an optical density of 0.364 OD.
Consider B28, for which the optical density worked out at 0.308 OD.
The same measure for B29: 0.369 OD; for B30: 0.656 OD.
The result for B31 reads 0.339 OD; that for B32, 0.309 OD; that for B33, 0.319 OD.
The result for B34 reads 0.288 OD.
Take B35: the optical density came to 0.25 OD.
The same measure for B36: 0.338 OD; for B37: 0.63 OD.
The result for B38 reads 0.217 OD; that for B39, 0.196 OD.
As for B40, the optical density was found to be 0.319 OD.
The result for B41 reads 0.449 OD; that for B42, 0.295 OD.
Take B43: the optical density turned out to be 0.372 OD.
The same measure for B44: 0.425 OD; for B45: 0.243 OD.

The record behind these values is US20210380703A1.
